Where no end group is shown, it is not given here. The star is where a group is joined. NBD = O=[N+]([O-])c1ccc(*)c2nonc12
Target: T1, bovine serum albumin (bovine, UniProt P02769 25-607)
T1 construct: bovine serum albumin; Free BSA in PBS, not the crosslinked BSA shell of the nanoparticles; also called BSA; source: bought: Sigma
Assay: fluorescence polarisation; fluorescence anisotropy of NBD; constant 0.4 uM ATRAM-NBD, increasing BSA (0.25-15 uM); PBS; room temperature; excitation 460 nm, emission 535 nm
Conditions: both partners purified

T1 sequence (P02769 25-607): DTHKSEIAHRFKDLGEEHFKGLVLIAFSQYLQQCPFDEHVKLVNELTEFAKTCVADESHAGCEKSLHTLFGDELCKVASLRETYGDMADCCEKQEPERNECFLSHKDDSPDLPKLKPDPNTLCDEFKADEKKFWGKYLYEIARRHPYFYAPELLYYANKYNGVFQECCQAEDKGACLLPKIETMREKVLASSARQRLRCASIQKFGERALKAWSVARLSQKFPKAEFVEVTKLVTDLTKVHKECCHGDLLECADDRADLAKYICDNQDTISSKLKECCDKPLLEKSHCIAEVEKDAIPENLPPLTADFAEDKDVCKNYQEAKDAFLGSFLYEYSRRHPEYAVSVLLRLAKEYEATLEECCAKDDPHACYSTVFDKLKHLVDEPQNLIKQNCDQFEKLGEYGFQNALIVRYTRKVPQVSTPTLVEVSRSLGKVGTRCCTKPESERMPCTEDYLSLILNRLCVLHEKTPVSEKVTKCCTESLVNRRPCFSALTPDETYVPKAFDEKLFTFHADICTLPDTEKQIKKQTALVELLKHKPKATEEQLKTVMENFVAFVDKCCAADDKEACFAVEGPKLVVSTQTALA

Kd: 295 nM
B1: NBD-labeled ATRAM (acidity-triggered rational membrane peptide), C-terminal cysteine variant (peptide)
peptide: GLAGLAGLLGLEGLLGLPLGLLEGLWLGLELEC(NBD)N
notes: designed pH-responsive ATRAM peptide, variant with a cysteine (underlined in print) next to the C-terminal residue; also called ATRAM-NBD; source: C-terminal cysteine ATRAM variant labelled with NBD; purified by PD-10 gel filtration and reverse-phase HPLC (parent ATRAM peptide: synthesized by Selleck Chemicals, Fmoc)
